# B1: MAP9-MTBD (Human MAP9 (302–647)::GFP::strepII) (domain or fragment)
# chain: SKESQVTADDLEEEKAKAELIMDDDRTVDPLLSKSQSILISTSATASSKKTIEDRNIKNKKSTNNRASSASARLMTSEFLKKSSSKRRTPSTTTSSHYLGTLKVLDQKPSQKQSIEPDRADNIRAAVYQEWLEKKNVYLHEMHRIKRIESENLRIQNEQKKAAKREEALASFEAWKAMKEKEAKKIAAKKRLEEKNKKKTEEENAARKGEALQAFEKWKEKKMEYLKEKNRKEREYERAKKQKEEETVAEKKKDNLTAVEKWNEKKEAFFKQKEKEKINEKRKEELKRAEKKDKDKQAINEYEKWLENKEKQERIERKQKKRHSFLESEALPPWSPPSRTVFAKVF
# Target: surface-immobilized biotinylated microtubules (pig, UniProt Q2XVP4 1-451; Q767L7 1-444, biotin (site not stated) | biotin (site not stated))
# Sequence (Q2XVP4 whole entry, chain 1 of 2): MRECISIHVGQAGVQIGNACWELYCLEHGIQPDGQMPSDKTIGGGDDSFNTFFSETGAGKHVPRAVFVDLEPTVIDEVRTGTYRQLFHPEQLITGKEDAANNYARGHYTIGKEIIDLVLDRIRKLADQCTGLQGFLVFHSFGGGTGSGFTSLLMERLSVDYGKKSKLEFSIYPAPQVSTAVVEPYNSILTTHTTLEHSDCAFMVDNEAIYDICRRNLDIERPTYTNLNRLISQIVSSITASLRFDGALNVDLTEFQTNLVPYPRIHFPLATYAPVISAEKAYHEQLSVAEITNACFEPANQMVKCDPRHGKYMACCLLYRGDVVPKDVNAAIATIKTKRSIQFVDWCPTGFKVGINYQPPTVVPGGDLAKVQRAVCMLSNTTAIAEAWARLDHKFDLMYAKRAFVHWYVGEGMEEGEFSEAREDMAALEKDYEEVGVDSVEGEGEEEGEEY
# Sequence (Q767L7 other isoform, or with tags, fused parts or gaps, chain 2 of 2): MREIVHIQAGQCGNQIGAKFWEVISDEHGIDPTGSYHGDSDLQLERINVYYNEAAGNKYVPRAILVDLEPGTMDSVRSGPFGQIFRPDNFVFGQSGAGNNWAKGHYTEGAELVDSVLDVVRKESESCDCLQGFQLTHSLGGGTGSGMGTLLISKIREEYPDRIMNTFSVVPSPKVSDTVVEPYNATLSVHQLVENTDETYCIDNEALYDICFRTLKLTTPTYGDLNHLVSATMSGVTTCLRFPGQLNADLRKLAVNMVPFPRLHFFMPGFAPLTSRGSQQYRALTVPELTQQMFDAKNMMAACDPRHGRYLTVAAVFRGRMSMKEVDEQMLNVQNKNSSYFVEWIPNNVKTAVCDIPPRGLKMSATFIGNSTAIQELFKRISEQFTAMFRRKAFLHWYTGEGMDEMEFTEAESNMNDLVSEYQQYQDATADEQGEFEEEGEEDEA
binder,measurement,value
B1,Kd,43 nM

# From article doi:10.1101/2025.11.17.688911 (2025)
